Test results reported in publication PMC4873981.

Target: Myc-MRTF, full-length Y866G mutant (UniProt P59759)
Experiment: co-IP; LLC-PK1 cells co-transfected with Myc-MRTF constructs and HA-TAZ constructs, IP with anti-Myc, blot for HA; untreated or LCM 30 min

UniProt P59759, sequence (P59759 whole entry Y866G): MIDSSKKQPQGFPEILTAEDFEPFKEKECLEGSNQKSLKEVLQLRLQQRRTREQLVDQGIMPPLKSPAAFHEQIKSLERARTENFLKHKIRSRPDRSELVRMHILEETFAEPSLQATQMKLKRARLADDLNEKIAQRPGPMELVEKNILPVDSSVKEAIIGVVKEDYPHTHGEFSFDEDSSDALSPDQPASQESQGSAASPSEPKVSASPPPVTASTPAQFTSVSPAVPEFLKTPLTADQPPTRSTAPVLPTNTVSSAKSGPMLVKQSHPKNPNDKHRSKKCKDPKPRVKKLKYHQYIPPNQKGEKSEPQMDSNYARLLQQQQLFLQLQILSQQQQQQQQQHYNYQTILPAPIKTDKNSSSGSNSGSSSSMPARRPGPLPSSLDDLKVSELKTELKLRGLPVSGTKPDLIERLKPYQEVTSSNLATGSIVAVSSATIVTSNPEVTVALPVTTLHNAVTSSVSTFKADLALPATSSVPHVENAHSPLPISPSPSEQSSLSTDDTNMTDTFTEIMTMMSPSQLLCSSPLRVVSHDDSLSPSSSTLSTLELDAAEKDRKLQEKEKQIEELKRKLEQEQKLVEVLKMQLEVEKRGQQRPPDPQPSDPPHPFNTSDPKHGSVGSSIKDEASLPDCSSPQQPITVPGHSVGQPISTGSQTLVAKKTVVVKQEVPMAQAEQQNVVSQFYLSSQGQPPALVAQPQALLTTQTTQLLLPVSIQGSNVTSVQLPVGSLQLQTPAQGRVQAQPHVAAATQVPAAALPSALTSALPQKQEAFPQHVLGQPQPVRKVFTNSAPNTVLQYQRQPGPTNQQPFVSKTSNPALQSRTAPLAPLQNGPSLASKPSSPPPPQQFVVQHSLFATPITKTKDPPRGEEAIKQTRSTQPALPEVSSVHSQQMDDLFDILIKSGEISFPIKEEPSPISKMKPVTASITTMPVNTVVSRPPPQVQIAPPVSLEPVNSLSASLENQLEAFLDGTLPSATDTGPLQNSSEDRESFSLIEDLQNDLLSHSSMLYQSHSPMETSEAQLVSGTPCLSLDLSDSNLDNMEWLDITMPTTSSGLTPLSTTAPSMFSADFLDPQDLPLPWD

reduction in association against WT MRTF: > 50%
Substance: HA-TAZ, wild type (from UniProt Q9GZV5 1-400) (natural protein)
